Source: US20130058965A1, “INJECTABLE FORMULATIONS FOR PARENTERAL ADMINISTRATION” (MANNKIND CORPORATION, priority 2009, published 2013)

Biological target: HLA-A*0201 (Homo sapiens, UniProt P04439, D140Y/D185E/D98H/E176V/E277Q/G131W/G231S/I119V/I121R/I166T/I218V/L300P/L318F/N151K/N90K/P208A/P217A/Q86G/Q94H/R138H/R169H/T345S)
Experiment: NY-ESO-1 analogues, % peptide binding (Table 1)

Row | % Peptide Binding [%] | Substance
1 | 80 | NY-ESO-1 157-165 (S157Y, C165V) (YLLMWITQV; Peptide analogue) [SEQ ID NO:13]
2 | 80 | NY-ESO-1 157-165 (S157Y, L158(Nva), C165V) [SEQ ID NO:19]
